Data from the nanobody polyreactivity screen of Harvey et al. (2022).

experiment: yeast display, Sf9 membrane polyspecificity reagent, FACS + sequencing; frameworks hold sequencing errors
Summary of the method: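 A nanobody's polyreactivity label depends on the gate it was sorted from. Yeast display cells were stained with 10% biotinylated, detergent-solubilized Sf9 membrane reagent for 1 hour at 4 °C, enriched on streptavidin microbeads and sorted by FACS. The low and high (top ~1%) gates were set on anti-HA fluorescence for expression and streptavidin fluorescence for reagent binding.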

Sequence	polyreactivity (PSR sort gate)
QVQHVESGGGLVQAGGSLRLSCAASGSTFTDYTMGWYRQAPGIESELVARIRSRGARTYYADSVKGRFTISRDNAKNTVYLQMNSLKPEDTAVYYCNKRWGAHRASPAYDYWGQGTQVTVSS	high polyreactivity
QVQHVESGGGLVQAGGSLRLSCAASGSTFVYYAMGWYRQPPGKERELVAVITRGGRTYYADSVKGRFTISRDNAKNTVYLQMNSLKPEDTAVYYCNKVTPHYHDTGLDYWGQGTQVTVSS	high polyreactivity
QVQHVESGGGLVQAGGSLRLSCAASGSTFWYYDMGWYRQAPGKEMELVAAISGSGGRTYYADSVKGRFTISRDNAKNTVYLQMNSLKPEDTAVYYCAADDYWSADFKYNYWGQGTQVTVSS	low polyreactivity
QVQHVESGGGLVQAGGSLRLSCAASGSTFYFYTMGWYRQAPGKERELVAAITYSGGSTYADSVKGRFTISRDNAKNTDYLQMNSLKPEDTAVYYCAAASYFYLYLLEDYWGQGTQVTVSS	low polyreactivity
QVQHVESGGGLVQAGGSLRLSCAASGSTFYGNTMGCYRQAPGKERELVAAISIRGTRTYYADSVKGRFTISRDNAKNTVYLQMNSLKPEDTAVYYCNAVTFPHNYDYWGQGTQVTVSS	high polyreactivity
QVQHVESGGGLVQAGGSLRLSCAASGSTFYRNTKGWYRQAPGKETELVAAISRSGGSTYYADSVKGRFTISRDNAKNTVYVQMNSLKPEDTAVYYCNADYTDYQTYSATTYEYWGQGTQVTVSS	low polyreactivity
QVQHVESGGGLVQAGGSLRLSCAASGSTIILNAMGWYRQAPGKERELVATISSSDTSTYYADSVKGRFTISRDNANNTVYLQMNSLKPEDTAVYYCNADYYTTSYLQRVIHYGVEYDYWGQGTQVTVSS	low polyreactivity
QVQHVESGGGLVQAGGSLRLSCAASGSTYTVYAMGRDRQAPGKERELVAAISGSGGRTYYADSVKGRFTISRDNAKNTVYLQMNILKPEDTGVYYCASQGNYWGQGTQVTVSS	high polyreactivity
QVQHVESGGGLVQAGGSLRLSCAASGTIFEGKGMGWYRQAPGKERELVAAITFRSGSTYYADSVKGRFTISRDNAKNTVYLQMNSLKPEDTAVYYCAADEYYQVSAYDYWGQGTQVTVSS	low polyreactivity
QVQHVESGGGLVQAGGSLRLSCAASGYTFIMYVMGWYRQAPGKERELVAAIDSNGTSTYADSVKGRFTISLDNAKNTVYFQMNSLKPEDTAVYYCAAGDIFRVFKEYDYWGQGTQVTVSS	low polyreactivity
QVQHVESGGGLVQAGGSLRLSCAASRSIFYYYAMGWYRQPPGKERELVAAISSDGTNYADSVKGRFTITRDNAKNTVYLQMNSLNPEDTAVYYCAKDHCTTSYDEGDYWGQGTQVTVSS	low polyreactivity
QVQHVESGGGLVQAGGSLRLSCAASRSTFYYYAMGWYRQAPGKERELVAAISRGGGSTYYADSVKGRFTISRDNAKNTVYLQMNSLKPEDTADDYCAARRVGGGFYTWRNPAYEYWGQGTQVTVSS	high polyreactivity
QVQHVESGGGLVQAGGSLRLSCAASVRTFIYYAMGWYRQAPGKERELVASITTGGRTYYADSVKGRFTISRDNAKNTVYLQMNSLKPEDTAVYYCNARWYRTGSTYHEDYWGQGTQVTVSS	high polyreactivity
QVQHVESGGGLVQAGGSLRLSCAASVRTLYYYAMGWSRQAPGKERELVAAISGGGRTYYADSVKGRFTISRDNAKNTVYLQMIILKPEDTAVYYCAARYRKSGLDNYWGQGTQVTVSS	high polyreactivity
QVQHVESGGGLVQAGGSLRLSCAASVSIFSPNDMGCYRQAPGKERELVAAITSAGSTYYADSVKGRFTISRDNAKNSVYLQMNSLKPEDTAVYYCAASYISVTDYAYFPLWYGYWGQGTQVTVSS	low polyreactivity
QVQHVESGGGLVQAGGSLRLSCASSGSTFRYNAMGWYRQAPVKERELVAAISSSGGSTYYADSVKGRFTISRDNAKNTVYLQMNSLKPEDPEVYYCAAPTRSRFKGYYYWGQGTQVTVSS	high polyreactivity
QVQHVESGGGLVQAGGSLRLSCSASGRTFNFYTMGWYRQAPGKEREFVAGITSTGGSTDYADSVKGRFTISRDNAKNTVYLQMNSLKPEDTAVYYCNALRRWWEPYWTYNYWGQGTQVTVSS	high polyreactivity
QVQHVESGGGLVQAGGSLRLSGAASGSTFQSYAMGWYRQAPGQERELVAAISTSDTDRTYYADSVKGRFTISRDNAKNTVYLQMNSLKPEDTAVYYCNADGYAHGDWYGYWGQGTQVTVSS	low polyreactivity
QVQHVESGGGLVQAGGSLRLSGAAYGRTFLYNAKGWNIQAPGKERELVAVISKRGGRTYYADSVKGRFTISRDNAKNTVYLQMKSLKPEDTAVYYCGAAYVTPPGPLRYNEYYWGQGSQVTVSS	high polyreactivity
QVQHVESGGGLVQAGGSLRLSIAASVFTFKGNAMGWYRQGPGKEMELVSTITQSGGSTYYADSVKGRFTISRDNAKNTVYLQMNSLKPEDTAVYFCNADPITLYYYSWYNYWGQGTQVTVSS	low polyreactivity
QVQHVESGGGLVQAGGSLRLSSAASGRTFGIYAMGWSRQAPGKERELVATISWRGGSTYYADSLKGRFTISRDNSKNTVYLQMNSLKPEDTAVDYCAAGYYPYWGQGTQVTVSS	low polyreactivity

Sequence	polyreactivity (PSR sort gate)
QVQHVESGGGLVQAGGSLRLTCAASGNTFWWNAMGWYRQAPGKERELVAAISWRGGSTYYADSVKGRFTISRDNAKNTVYLQMKCLKPEDTAVYYCAKRNYHDESVVEEDYWGQGTQVTVSS	low polyreactivity
QVQHVESGGGLVQAGGTLRLSCAASGSIFFWYGMGRYRQAPGKERELVAAITSGGISYYADSVKGRFTISRDNAKNTVYFQMNSLKPEDTAVYYCATRTYTYWGGSYPHYYWGQGSQVTVSS	high polyreactivity
QVQHVESGGGLVQAGLSLRLSCAASGRIFYGYAMGWYRQGPGQEREFVAAITSGGRTYYADSVKGRFTISRDNAKTTVYLQLNSLKPEDTAVYYCAAAQYYRYGYWGQGTQVTVSS	high polyreactivity
QVQHVESGGGLVQAGRSLPLSCAASGSIFWDNALGWYRQATGKEMVLVAAITSCGDTTYYADSVKGRFTISRDNSKNTVYLQMNSLKPEDTAVYYCATDSNWYWGFNYWGQGTQVTVSS	low polyreactivity
QVQHVESGGGLVQAGRSLRLICAASGRTFSRYALGWSRQAPGKERELVASIRSGGSTNYADSVKGRFTISRDNAKNTVYLQMNSLKPEDSAVYYCAKRGRLRNYDYWGQGTQVTVSS	high polyreactivity
QVQHVESGGGLVQAGRSLRLSCAATGYIFWKNAMGWYRQAPGKERELVAGITIRGGRTYYADSVKGRFTISRDNAKNTVYLQMNSLKPEDTAVYYCAAGTGVSRYRYVYWGQGTQVTVSS	high polyreactivity
QVQHVESGGGLVQAGVSLRLSCAASGFTFYNYAMGWYRQAPGKERELVAAITSSGTSTYYADSVKGRFTISRDNAKNTVYLQMNSLKPEDTAVYYCNAVSSYYYSYDYWGQGTQVTVSS	low polyreactivity
QVQHVESGGGLVQAGVSLRLSCAASGSTFRRYAMGWYRQSRGKERELVATISSRGGSTNYADSVKGRFTISRDNAKNTVYLQMNSLNPEDTSFYYCARSTSLVTKDDYWGQGTQVTVSS	high polyreactivity
QVQHVESGGGLVQARGSLRLSCAPSGFTFETNAMGWYRQAPGKEREFDAAISWTTTSTYFADSVKGRVTISRDNAKNTVYLQMNSLKPEDTAVYSCAVGLIREFGWDYDYWGQGTQVTVSS	low polyreactivity
QVQHVESGGGLVQAVGSLRLSCAASGRIVYYVMGWYRQAPGKERELVAAISTRGGSTYYADSVKGRFTISLDNAKNTVYLQMNSLTPEDTAVYYCAASSLLTRYNSWGQGTQVTVSS	high polyreactivity
QVQHVESGGGLVQAVGSLRLSSAASGSTIRYYAMGWYRQAPGKERELVASISSSGGSTFYADSVKGRFTISRDNAKNSVYLQMNSLKPEDTAVYYCARRYHYNMDYWGQGTQVTVSS	high polyreactivity
QVQHVESGGGLVQPGGSLRLSCAASGNAMGWYRQAPGKERELVASINRSGGRTYYADSVKGSYTISRDNAKNTVYLQMNSLKPEDTAVYYCAARPHYDSDYWGQGTQVTVSS	low polyreactivity
QVQHVESGGGLVQSGGSHRLSCAASGSTFSDNSLGWYRQAPAKERELVAAISRSGGSTYYADSVNGRFTISRDYAKNTVYLQMNSLIPEDTAVYYCATNRVLTGYDSWGQGTQVTVSS	high polyreactivity
QVQHVESGGGVVQAGGSLRLSCAASGIIFPRNALGWYRQAPGKERELVAAIRSSGGTTYYADSVKGRFTISRDNAKNTVYLQMNSLKPEDTAVFYCAAVTTSKFNYWGQGTQVTVSS	low polyreactivity
QVQHVESGGRLVQAGGSLRLSCAASGITFRVYALGWYRQPRGKERELVAAITSSGGSTYYADSVKGRFTISRDNAKNTVYLQMNSLKPEHTAVDYCAAFSAVDSPLDYWGQGTQVTVSS	low polyreactivity
QVQHVESGGVLVQAGGSLRLSCAASGSIFVIYAMGWYRQAPGQEWELVAAINRGSTNYADSVKGRFTISRDNAKNTVYLQMNSLKPEDTAVYYCAAYGRYGFGRVERYDYWGLGTQVTVSS	high polyreactivity
QVQHVESGGVLVQAGGSLRLSCAASGSTFARNALGWYRQAPGKETELVAAITTRGSSTYYADSVKGRFTISRDKAKNTVYLQLYSLKPEDTAVYYCAAVSRRSWYWGGYRQNGMGYWGQGTQVTVSS	high polyreactivity
QVQHVESGICLVQAGGSLRLSCAASGGTVTPYAMGWYRQAPGKERELVAAISRYGARTYYADSVKGRFTISRDNANNNVFLEMNSLKPEVSAVYYCAARWYARTYVRGGMVYWRQGTQVTVSS	high polyreactivity
QVQHVESGLGLDQAAGSLRLSSAASGFIFWYSSMGWYREARGKERELVAAITGGAITYYADSVKGRFTITRDNAKNTVYLPMNSLIPEDTAVYYGADELTLGRFRYDYWGQGTQVTVSA	high polyreactivity
QVQHVESGRGLVQAGGRLRLSCADSGMTFGYSAMGWYRPAPGKDRELVAAISGTAGDTYYADSVKGRFTISRDNAKNTVYLQMNSLKAEVTAVYYCAKVKRWFGVTIELDYWGQGTQGTVSS	low polyreactivity
